Test results: PMC5536962 (Cell reports, 2015)

T1: GST-Mcm10 (yeast, UniProt P32354 1-571)
T1 sequence (looked up): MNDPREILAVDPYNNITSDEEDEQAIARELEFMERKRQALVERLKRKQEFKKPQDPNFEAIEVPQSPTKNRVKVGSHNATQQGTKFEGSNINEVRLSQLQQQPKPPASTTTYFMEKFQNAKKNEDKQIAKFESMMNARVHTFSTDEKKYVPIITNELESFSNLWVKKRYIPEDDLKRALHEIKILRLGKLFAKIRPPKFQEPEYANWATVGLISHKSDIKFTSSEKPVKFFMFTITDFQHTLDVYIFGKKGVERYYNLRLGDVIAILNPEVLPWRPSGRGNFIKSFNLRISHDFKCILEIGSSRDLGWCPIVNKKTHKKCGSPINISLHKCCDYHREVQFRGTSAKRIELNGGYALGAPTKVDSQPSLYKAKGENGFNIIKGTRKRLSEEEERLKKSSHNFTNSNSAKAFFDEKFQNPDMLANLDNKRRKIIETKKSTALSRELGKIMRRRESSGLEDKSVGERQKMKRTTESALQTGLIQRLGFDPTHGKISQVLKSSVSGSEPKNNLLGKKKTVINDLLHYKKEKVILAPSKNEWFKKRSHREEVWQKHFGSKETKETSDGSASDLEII

T2: Mcm10 (GST tag removed) (yeast, UniProt P32354 1-571)
T2 sequence (looked up): T1 sequence (looked up)

B1: 6His-Mcm2 (1-299) (domain or fragment, yeast, UniProt P29469 1-299, looked up)
chain: MSDNRRRRREEDDSDSENELPPSSPQQHFRGGMNPVSSPIGSPDMINPEGDDNEVDDVPDIDEVEEQMNEVDLMDDNMYEDYAADHNRDRYDPDQVDDREQQELSLSERRRIDAQLNERDRLLRNVAYIDDEDEEQEGAAQLDEMGLPVQRRRRRRQYEDLENSDDDLLSDMDIDPLREELTLESLSNVKANSYSEWITQPNVSRTIARELKSFLLEYTDETGRSVYGARIRTLGEMNSESLEVNYRHLAESKAILALFLAKCPEEMLKIFDLVAMEATELHYPDYARIHSEIHVRISD
B2: GST-Mcm6 (1-439) (domain or fragment, yeast, UniProt P53091 1-439, looked up)
chain: MSSPFPADTPSSNRPSNSSPPPSSIGAGFGSSSGLDSQIGSRLHFPSSSQPHVSNSQTGPFVNDSTQFSSQRLQTDGSATNDMEGNEPARSFKSRALNHVKKVDDVTGEKVREAFEQFLEDFSVQSTDTGEVEKVYRAQIEFMKIYDLNTIYIDYQHLSMRENGALAMAISEQYYRFLPFLQKGLRRVVRKYAPELLNTSDSLKRSEGDEGQADEDEQQDDDMNGSSLPRDSGSSAAPGNGTSAMATRSITTSTSPEQTERVFQISFFNLPTVHRIRDIRSEKIGSLLSISGTVTRTSEVRPELYKASFTCDMCRAIVDNVEQSFKYTEPTFCPNPSCENRAFWTLNVTRSRFLDWQKVRIQENANEIPTGSMPRTLDVILRGDSVERAKPGDRCKFTGVEIVVPDVTQLGLPGVKPSSTLDTRGISKTTEGLNSGVTG
B3: GST-Mcm4 (1-471) (domain or fragment, yeast, UniProt P30665 1-471, looked up)
chain: MSQQSSSPTKEDNNSSSPVVPNPDSVPPQLSSPALFYSSSSSQGDIYGRNNSQNLSQGEGNIRAAIGSSPLNFPSSSQRQNSDVFQSQGRQGRIRSSASASGRSRYHSDLRSDRALPTSSSSLGRNGQNRVHMRRNDIHTSDLSSPRRIVDFDTRSGVNTLDTSSSSAPPSEASEPLRIIWGTNVSIQECTTNFRNFLMSFKYKFRKILDEREEFINNTTDEELYYIKQLNEMRELGTSNLNLDARNLLAYKQTEDLYHQLLNYPQEVISIMDQTIKDCMVSLIVDNNLDYDLDEIETKFYKVRPYNVGSCKGMRELNPNDIDKLINLKGLVLRSTPVIPDMKVAFFKCNVCDHTMAVEIDRGVIQEPARCERIDCNEPNSMSLIHNRCSFADKQVIKLQETPDFVPDGQTPHSISLCVYDELVDSCRAGDRIEVTGTFRSIPIRANSRQRVLKSLYKTYVDVVHVKKVSD

Legend:
Assay in all cases: pull-down
GST-Mcm10 = target: T1, GST-Mcm10
GST-Mcm4 (1-471) = target: B3
GST-Mcm6 (1-439) = target: B2
Mcm10 (GST tag removed) = target: T2, Mcm10 (GST tag removed)

binding result (GST-Mcm10)	binding result (GST-Mcm4 (1-471))	binding result (GST-Mcm6 (1-439))	binding result (Mcm10 (GST tag removed))	Binder
binds	binds	binds	–	B1
–	–	–	binds	B2
–	–	–	binds	B3
